Experimental data taken from US20240228639A1 (ALLOGENE THERAPEUTICS, published 2024).
“And” between values parts separate entries of the source, which are not always exact repeats. Identical values can stand only once.

Key:
4F11 scFv 10xHis [1] = molecular target: T1, 4F11 scFv 10xHis; assay: SPR (Biacore T200), 37 C; antibody captured on anti-mouse Fc chip, 4F11 scFv 10xHis 1.2-100 nM as analyte; 1:1 Langmuir fit
T1 construct: also called 4F11-derived scFv with a His tag; anti-CD70 scFv 4F11
Procedure: (§1) All SPR analysis was determined on a BIACore T200 SPR instrument (Cytiva, Marlborough, MA). For kinetic analysis and determination of simultaneous target antigen binding of CD70 anti-idiotype antibodies, mouse Fc was captured on a Biacore Series S CM4 sensor chip by amine-coupling of an anti-mouse Fc reagent (Mouse Antibody Capture Kit, Cytiva, BR100838) to the Biacore Series S CM4 sensor chip using a running buffer of 10 mM HEPES, 150 mM NaCl, 0.05% (v/v) Tween-20, pH 7.4 at 25° C. All surfaces of the sensor chip were activated with a 1:1 (v/v) mixture of 400 mM 1-Ethyl-3-(3-Dimethylaminopropyl) carbodiimide hydrochloride (EDC) and 100 mM N-hydroxysuccinimide (NHS) for 7 min at 10 μL/min. The anti-mouse Fc reagent was diluted to 30 μg/mL in 10 mM sodium acetate (pH 5.0) and injected on all four flow cells for 7 min at 10 μL/min, then all flow cells were blocked with 100 mM ethylenediamine in 200 mM Borate buffer pH 8.5 for 7 min at […].
(§2) All interaction experiments were performed at 37° C. using the same running buffer as described above supplemented with 1 mg/mL BSA. […] The dissociation was monitored for 10 min followed by regeneration of all flow cells with 10 mM glycine at pH 1.7 for 3 min. […]

4F11 scFv 10xHis [2] = molecular target: T1, 4F11 scFv 10xHis; assay: SPR (Biacore), clone 60 captured on anti-mouse Fc, 4F11_scFv_0166-P as analyte, 37 C, 1:1 Binding model; Table 3 prints 1.43 nM for this lot, the sheet prints 1.422E-9
Procedure: as §1, §2

Biotin-hCD70 = molecular target: T2, Biotin-hCD70 (human, UniProt P32970 39-193, limits assumed, biotinylated (site not stated)); assay: SPR, Bt-hCD70 alone injected over clone 60 (hybridoma and recombinant) captured on anti-mouse Fc, then streptavidin
T2 construct: also called biotin-hCD70 complex; target antigen hCD70
T2 sequence (looked up): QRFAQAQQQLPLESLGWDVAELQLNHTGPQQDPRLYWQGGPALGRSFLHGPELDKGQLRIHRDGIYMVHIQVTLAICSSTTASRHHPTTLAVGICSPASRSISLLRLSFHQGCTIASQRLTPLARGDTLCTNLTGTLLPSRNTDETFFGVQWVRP

T1 sequence (scFv, as listed by the source): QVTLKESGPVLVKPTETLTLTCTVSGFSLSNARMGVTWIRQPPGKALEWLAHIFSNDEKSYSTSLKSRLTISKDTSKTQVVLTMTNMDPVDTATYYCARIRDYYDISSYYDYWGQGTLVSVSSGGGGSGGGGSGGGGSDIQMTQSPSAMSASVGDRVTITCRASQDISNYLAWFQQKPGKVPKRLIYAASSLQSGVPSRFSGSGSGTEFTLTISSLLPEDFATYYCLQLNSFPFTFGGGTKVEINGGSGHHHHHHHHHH

B1: anti-idiotype antibody Clone 60 (IDA2002-1.60) (antibody, mouse IgG1, kappa, V domains shown)
VH: EVQLQQSGPELVKTGTSVKISCKASGYSITGYYIHWVKQSHGRSLDWIGSISFYNGATTYNQKFKGKVTFTVDTSSSTAYMQFNSLTSEDSAVYYCGRRGDDYDVFAYWGQGTLVTVSA
VL: DIVLTQSPASLAVSLGQRATISCRASESVDSYGYSFLHWYQQKPGQPPTLLIYRASNLESGIPARFSGSGSRTDFTLTINSVEADDVATYYCQQSNEDPWTFGGGTKLEIKR
notes: Mouse IgG1 kappa; also called clone 1.60; Clone 60-PE
Kd (4F11 scFv 10xHis [1]): 1.43 nM and 1.52 nM and 1.42 nM and 1.32 nM
koff (4F11 scFv 10xHis [1]): 0.00343 s⁻¹ and 0.00359 s⁻¹ and 0.00312 s⁻¹ and 0.00348 s⁻¹
kon (4F11 scFv 10xHis [1]): 2.7e+06 M⁻¹ s⁻¹ and 2.2e+06 M⁻¹ s⁻¹ (2×) and 2.4e+06 M⁻¹ s⁻¹
t1/2 (4F11 scFv 10xHis [1]): 3.32 min and 3.37 min and 3.7 min and 3.22 min
Kd (4F11 scFv 10xHis [2]): 1.42 nM
binding result (Biotin-hCD70): no binding (tested: 1 uM)
